Where two headings read alike, the source gives them in different places.
Columns and labels:
LX2 cells = assay: Cell uptake by fluorescence imaging, LX2; format: cell-based, Human; conditions: αvβ3-negative, 10 μM, 2 h
[1] = format: physicochemical; conditions: PBS pH 7.4, 10% DMSO, 37 °C; for intact (%) under 10 mM GSH at 2 μM: 520 nm HPLC–MS; for intact (%) under 10 mM GSH: 520 nm HPLC–MS (PyTz UV–Vis)
Experimental: All tetrazine compounds were diluted to a concentration of 50 μM or 2 μM using PBS (10% DMSO, pH 7.4). A stock solution of GSH (400 mM in PBS) was then added to achieve a final concentration of 10 mM. The mixture was homogenized and incubated at 37 °C for 12 h. The stability of the compounds (including all peptide conjugates and PmTz) was assessed by measuring the decrease in peak area at 520 nm (with the initial peak area at 0 min defined as 100%). This measurement was monitored by HPLC–MS. Similarly, the stability of PyTz was determined by monitoring the decrease in peak intensity at 520 nm using UV–Vis. Statistical analysis was performed on data from three replicates to calculate the mean and standard deviation. […]
Response 1: We appreciate your comment. We conducted stability tests on RGD-Dox and RGD-SN-38 in 10 mM GSH at a concentration of 2 μM, which is below the critical micelle concentrations. After incubating at 37 °C for 12 hours, we observed that 95% of RGD-Dox and 85% of RGD-SN-38 remained intact. This stability is slightly less than […]
the observed stability is intrinsic to the peptide-drug conjugates, with a slight enhancement due to micelle […]
concentrations, after 12 hours of incubation at 37 °C (Figure S46). […]
intrinsic to the PDCs, with a slight enhancement by micelle formation.
Details of these experiments have been included in the Supplementary Information (Page S42), as outlined below:
RGD-Dox and RGD-SN-38 were diluted to a concentration of 2 μM using PBS (10% DMSO, pH 7.4). A stock solution of GSH (400 mM in PBS) was then added to achieve a final concentration of 10 mM. The mixture was homogenized and incubated at 37 °C for 12 hours. Stability was assessed by measuring the decrease in peak area at 520 nm (with the initial peak area at 0 min defined as 100%). This measurement was monitored by HPLC–MS. Statistical analysis was performed on data from three replicates to calculate the mean and standard deviation.

B16F10 cells = assay: Comparison of cell uptake between RGD-Dox and Dox using flow cytometry; format: cell-based, Mouse
Experimental: B16F10 cells were cultured for 48 h. […]
12.1 Calculation of the fluorescence coefficient (F c)
The Fc was the radio calculated
12.2 Uptake calculation of the B16F10 cells […]
deviation were analyzed using Origin Pro 2015.
B16F10 cells, characterized by α vβ3
Following the incubation period, the
Subsequently, the cells were trypsinized and underwent three PBS rinses. […]

Structure (SMILES): COc1cccc2c1C(=O)c1c(O)c3c(c(O)c1C2=O)C[C@@](O)(C(=O)CO)C[C@@H]3O[C@H]1C[C@H](NC(=O)OCc2nnc(CCSC[C@@H]3NC(=O)[C@@H](Cc4ccc(O)cc4)NC(=O)[C@H](CC(=O)O)NC(=O)CNC(=O)[C@H](CCCNC(=N)N)NC3=O)nn2)[C@H](O)[C@H](C)O1 [RGD-Dox]
- cellular fluorescence (uptake) in LX2 cells (LX2 cells): negligible fluorescence
- intact (%) under 10 mM GSH at 2 μM ([1]; 1 h, Data 1, 2 μM (below CMC)): 98%
- intact (%) under 10 mM GSH ([1]; 1 h, Data 1, 50 μM): 98.414%
- intact (%) under 10 mM GSH at 2 μM ([1]; 1 h, Data 2, 2 μM (below CMC)): 96.5%
- intact (%) under 10 mM GSH ([1]; 1 h, Data 2, 50 μM): 98.1%
- intact (%) under 10 mM GSH at 2 μM ([1]; 1 h, Data 3, 2 μM (below CMC)): 98%
- intact (%) under 10 mM GSH ([1]; 1 h, Data 3, 50 μM): 97%
- intact (%) under 10 mM GSH at 2 μM ([1]; 3 h, Data 1, 2 μM (below CMC)): 93.4%
- intact (%) under 10 mM GSH ([1]; 3 h, Data 1, 50 μM): 95.9241%
- intact (%) under 10 mM GSH at 2 μM ([1]; 3 h, Data 2, 2 μM (below CMC)): 94.4%
- intact (%) under 10 mM GSH ([1]; 3 h, Data 2, 50 μM): 96.1928%
- intact (%) under 10 mM GSH at 2 μM ([1]; 3 h, Data 3, 2 μM (below CMC)): 94.5%
- intact (%) under 10 mM GSH ([1]; 3 h, Data 3, 50 μM): 97.3114%
- intact (%) under 10 mM GSH at 2 μM ([1]; 5 h, Data 1, 2 μM (below CMC)): 94.7%
- intact (%) under 10 mM GSH at 2 μM ([1]; 5 h, Data 2, 2 μM (below CMC)): 95%
- intact (%) under 10 mM GSH at 2 μM ([1]; 5 h, Data 3, 2 μM (below CMC)): 94.9%
- intact (%) under 10 mM GSH at 2 μM ([1]; 8 h, Data 1, 2 μM (below CMC)): 95%
- intact (%) under 10 mM GSH ([1]; 8 h, Data 1, 50 μM): 93.681%
- intact (%) under 10 mM GSH at 2 μM ([1]; 8 h, Data 2, 2 μM (below CMC)): 95.7%
- intact (%) under 10 mM GSH ([1]; 8 h, Data 2, 50 μM): 93.4607%
- intact (%) under 10 mM GSH at 2 μM ([1]; 8 h, Data 3, 2 μM (below CMC)): 96%
- intact (%) under 10 mM GSH ([1]; 8 h, Data 3, 50 μM): 95.7%
- remained intact with 10 mM GSH at 2 μM ([1]; 12 h, 2 μM (below CMC), HPLC–MS 520 nm, mean of n = 3): 95%
- remained intact with 10 mM GSH ([1]; 12 h, 50 μM, HPLC–MS peak area 520 nm, mean of n = 3): 96%
- intact (%) under 10 mM GSH at 2 μM ([1]; 12 h, Data 1, 2 μM (below CMC)): 96%
- intact (%) under 10 mM GSH ([1]; 12 h, Data 1, 50 μM): 94.9%
- intact (%) under 10 mM GSH at 2 μM ([1]; 12 h, Data 2, 2 μM (below CMC)): 95.4%
- intact (%) under 10 mM GSH ([1]; 12 h, Data 2, 50 μM): 97.6967%
- intact (%) under 10 mM GSH at 2 μM ([1]; 12 h, Data 3, 2 μM (below CMC)): 97%
- intact (%) under 10 mM GSH ([1]; 12 h, Data 3, 50 μM): 96.3405%
- Normalized uptake (B16F10 cells; normalized to Dox = 1, Data 1): 22.44
- Normalized uptake (B16F10 cells; normalized to Dox = 1, Data 2): 22.03
- Normalized uptake (B16F10 cells; normalized to Dox = 1, Data 3): 17.85
